US8283180B2, “Periodic acid-schiff staining with detection in the infrared range” (Amicus Therapeutics, Inc., priority 2007, dated 2012)

System: PM-12 cells
Assay: PAS staining of Pompe fibroblasts with IR fluorescence detection after diastase digestion
Type: cell-based, human
Details: 20,000 cells/well; 0.1% diastase, 5 to 60 minutes; detection at 800 nm; FIG. 2
Experimental: PM-11 Pompe fibroblasts were obtained from Dr. W. J. Kleijer, Department of Cell Biology & Genetics, Erasmus University, The Netherlands. PM-12 Pompe fibroblasts were purchased from Coriell (catalog #GM03329). CRL-2076 fibroblasts (negative control) were purchased from American Type Culture Collection (Manassas, Va.). All fibroblast lines were routinely cultured at 37° C., 5% CO2, in growth medium consisting of Dulbecco's Modified […] Medium containing 15% fetal bovine serum (Hyclone, Logan, Utah), 100 U/mL penicillin; 100 μg/mL streptomycin, and 2 mM L-glutamine.
Prior to the assay, borosilicate coverslip glass bottom 96-well black plates (Nunc; catalog #164588) are coated with superfibronectin (Sigma). […] Briefly, 100 μL of 5 μg/mL superfibronectin (Sigma) is pipetted into each well and the plate is incubated at 37° C. for 2 hours. […]
Following the overnight incubation, the plate is read on a laser-based Odyssey IR scanner (Li-Cor, Inc.) at emission wavelengths of 700 nm (near-IR) or 800 nm (IR). The detector counts IR and near-IR fluorescence emissions independently or simultaneously from the samples, and reports these counts as arbitrary units. The detector scans across an entire microtiter plate, thus can read two fluorophores from any microtiter formatted sample array (96-well, 384-well, or other) within a few minutes. […]

B1: diastase: α-amylase type VI-B from porcine pancreas; breaks down glycogen, used as negative control for PAS staining (protein, UniProt P00690 16-511, looked up)
Pancreatic alpha-amylase: QYAPQTQSGRTSIVHLFEWRWVDIALECERYLGPKGFGGVQVSPPNENIVVTNPSRPWWERYQPVSYKLCTRSGNENEFRDMVTRCNNVGVRIYVDAVINHMCGSGAAAGTGTTCGSYCNPGNREFPAVPYSAWDFNDGKCKTASGGIESYNDPYQVRDCQLVGLLDLALEKDYVRSMIADYLNKLIDIGVAGFRIDASKHMWPGDIKAVLDKLHNLNTNWFPAGSRPFIFQEVIDLGGEAIQSSEYFGNGRVTEFKYGAKLGTVVRKWSGEKMSYLKNWGEGWGFMPSDRALVFVDNHDNQRGHGAGGASILTFWDARLYKVAVGFMLAHPYGFTRVMSSYRWARNFVNGQDVNDWIGPPNNNGVIKEVTINADTTCGNDWVCEHRWRQIRNMVWFRNVVDGQPFANWWANGSNQVAFGRGNRGFIVFNNDDWQLSSTLQTGLPGGTYCDVISGDKVGNSCTGIKVYVSSDGTAQFSISNSAEDPFIAIHAESKL
Q: For B1, which “time-dependent decrease in PAS stain IR fluorescence signal” value is on record?
A: about 2 fold
